To fix the notation:
B1: Defensin-6 (Homo sapiens), Q01524 (parent)
chain: MRTLTILTAVLLVALQAKAEPLQAEDDPLQAKAYEADAQEQRGANDQDFAVSFAEDASSSLRALGSTRAFTCHCRRSCYSTEYSYGTCTVMGINHRFCCL
B2: Protein BEX5 (Homo sapiens), Q5H9J7 (parent)
chain: MENVPKENKVVEKAPVQNEAPALGGGEYQEPGGNVKGVWAPPAPGFGEDVPNRLVDNIDMIDGDGDDMERFMEEMRELRRKIRELQLRYSLRILIGDPPHHDHHDEFCLMP
B3: Protein FAM168A (Homo sapiens), Q92567 (parent)
chain: MNPVYSPVQPGAPYGNPKNMAYTGYPTAYPAAAPAYNPSLYPTNSPSYAPEFQFLHSAYATLLMKQAWPQNSSSCGTEGTFHLPVDTGTENRTYQASSAAFRYTAGTPYKVPPTQSNTAPPPYSPSPNPYQTAMYPIRSAYPQQNLYAQGAYYTQPVYAAQPHVIHHTTVVQPNSIPSAIYPAPVAAPRTNGVAMGMVAGTTMAMSAGTLLTTPQHTAIGAHPVSMPTYRAQGTPAYSYVPPHW
partner: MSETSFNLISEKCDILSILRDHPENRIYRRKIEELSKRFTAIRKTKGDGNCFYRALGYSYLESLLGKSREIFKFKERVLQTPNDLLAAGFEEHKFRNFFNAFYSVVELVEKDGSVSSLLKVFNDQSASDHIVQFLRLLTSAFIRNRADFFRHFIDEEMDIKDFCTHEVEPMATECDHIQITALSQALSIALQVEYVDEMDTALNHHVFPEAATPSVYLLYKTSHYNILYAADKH
B4: Cytochrome P450 2S1 (Homo sapiens), Q96SQ9 (parent)
chain: MEATGTWALLLALALLLLLTLALSGTRARGHLPPGPTPLPLLGNLLQLRPGALYSGLMRLSKKYGPVFTIYLGPWRPVVVLVGQEAVREALGGQAEEFSGRGTVAMLEGTFDGHGVFFSNGERWRQLRKFTMLALRDLGMGKREGEELIQAEARCLVETFQGTEGRPFDPSLLLAQATSNVVCSLLFGLRFSYEDKEFQAVVRAAGGTLLGVSSQGGQTYEMFSWFLRPLPGPHKQLLHHVSTLAAFTVRQVQQHQGNLDASGPARDLVDAFLLKMAQEEQNPGTEFTNKNMLMTVIYLLFAGTMTVSTTVGYTLLLLMKYPHVQKWVREELNRELGAGQAPSLGDRTRLPYTDAVLHEAQRLLALVPMGIPRTLMRTTRFRGYTLPQGTEVFPLLGSILHDPNIFKHPEEFNPDRFLDADGRFRKHEAFLPFSLGKRVCLGEGLAKAELFLFFTTILQAFSLESPCPPDTLSLKPTVSGLFNIPPAFQLQVRPTDLHSTTQTR
partner: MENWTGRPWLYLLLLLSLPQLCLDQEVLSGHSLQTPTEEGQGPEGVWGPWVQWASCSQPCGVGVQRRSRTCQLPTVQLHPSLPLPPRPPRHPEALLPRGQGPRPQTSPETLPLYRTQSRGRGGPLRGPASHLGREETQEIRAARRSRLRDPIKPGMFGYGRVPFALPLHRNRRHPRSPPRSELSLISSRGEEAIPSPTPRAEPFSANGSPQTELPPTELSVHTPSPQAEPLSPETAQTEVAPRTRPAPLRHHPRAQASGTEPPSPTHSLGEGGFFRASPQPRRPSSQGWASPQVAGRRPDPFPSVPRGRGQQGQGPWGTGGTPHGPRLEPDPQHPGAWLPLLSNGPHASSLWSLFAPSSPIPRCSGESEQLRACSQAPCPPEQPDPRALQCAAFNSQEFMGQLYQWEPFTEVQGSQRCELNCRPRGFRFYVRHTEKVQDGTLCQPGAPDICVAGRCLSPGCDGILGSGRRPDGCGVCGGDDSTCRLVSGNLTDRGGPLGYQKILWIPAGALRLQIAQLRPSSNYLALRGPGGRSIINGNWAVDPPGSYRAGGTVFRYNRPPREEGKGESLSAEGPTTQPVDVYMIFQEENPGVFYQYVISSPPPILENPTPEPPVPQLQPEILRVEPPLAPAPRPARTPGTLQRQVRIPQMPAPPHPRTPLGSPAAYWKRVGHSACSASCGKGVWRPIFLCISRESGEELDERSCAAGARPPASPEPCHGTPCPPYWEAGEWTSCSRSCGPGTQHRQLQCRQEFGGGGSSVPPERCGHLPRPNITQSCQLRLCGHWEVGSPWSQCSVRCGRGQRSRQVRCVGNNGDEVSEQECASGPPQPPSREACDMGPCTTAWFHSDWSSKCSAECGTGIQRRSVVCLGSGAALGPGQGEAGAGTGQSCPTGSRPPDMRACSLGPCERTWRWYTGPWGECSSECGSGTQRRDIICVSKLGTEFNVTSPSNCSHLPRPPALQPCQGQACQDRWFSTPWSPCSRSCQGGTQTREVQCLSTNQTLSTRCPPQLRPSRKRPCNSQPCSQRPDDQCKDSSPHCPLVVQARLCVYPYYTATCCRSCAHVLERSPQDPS

The first experiment covers variants of B1. The note with it: with ubql1_human UBQLN1, Q9UMX0.
Sequence of ubql1_human UBQLN1, Q9UMX0 (Q9UMX0 whole entry): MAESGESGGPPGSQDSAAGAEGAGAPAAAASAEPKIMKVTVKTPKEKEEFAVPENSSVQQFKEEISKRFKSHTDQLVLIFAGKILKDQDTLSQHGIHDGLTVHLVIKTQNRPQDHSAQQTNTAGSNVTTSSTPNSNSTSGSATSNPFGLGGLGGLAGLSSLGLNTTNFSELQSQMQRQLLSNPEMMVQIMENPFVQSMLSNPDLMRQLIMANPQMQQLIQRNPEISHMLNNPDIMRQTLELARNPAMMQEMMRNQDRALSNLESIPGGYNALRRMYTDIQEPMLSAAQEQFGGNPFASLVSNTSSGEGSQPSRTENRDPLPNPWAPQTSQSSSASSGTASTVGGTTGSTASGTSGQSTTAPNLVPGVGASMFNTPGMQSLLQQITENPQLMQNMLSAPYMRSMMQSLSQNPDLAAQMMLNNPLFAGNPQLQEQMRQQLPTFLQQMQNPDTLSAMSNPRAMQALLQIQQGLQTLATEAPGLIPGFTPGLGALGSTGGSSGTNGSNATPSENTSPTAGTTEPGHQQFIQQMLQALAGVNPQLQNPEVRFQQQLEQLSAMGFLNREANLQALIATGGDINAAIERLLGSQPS
With D46E, the “effect of a mutation on the interaction” value is reported as “with no effect”.
Consider E35D, for which the “effect of a mutation on the interaction” value was “with no effect”.

The variants in another experiment derive from B2. The note with it: with emil1_human EMILIN1, Q9Y6C2.
Sequence of emil1_human EMILIN1, Q9Y6C2 (Q9Y6C2 whole entry): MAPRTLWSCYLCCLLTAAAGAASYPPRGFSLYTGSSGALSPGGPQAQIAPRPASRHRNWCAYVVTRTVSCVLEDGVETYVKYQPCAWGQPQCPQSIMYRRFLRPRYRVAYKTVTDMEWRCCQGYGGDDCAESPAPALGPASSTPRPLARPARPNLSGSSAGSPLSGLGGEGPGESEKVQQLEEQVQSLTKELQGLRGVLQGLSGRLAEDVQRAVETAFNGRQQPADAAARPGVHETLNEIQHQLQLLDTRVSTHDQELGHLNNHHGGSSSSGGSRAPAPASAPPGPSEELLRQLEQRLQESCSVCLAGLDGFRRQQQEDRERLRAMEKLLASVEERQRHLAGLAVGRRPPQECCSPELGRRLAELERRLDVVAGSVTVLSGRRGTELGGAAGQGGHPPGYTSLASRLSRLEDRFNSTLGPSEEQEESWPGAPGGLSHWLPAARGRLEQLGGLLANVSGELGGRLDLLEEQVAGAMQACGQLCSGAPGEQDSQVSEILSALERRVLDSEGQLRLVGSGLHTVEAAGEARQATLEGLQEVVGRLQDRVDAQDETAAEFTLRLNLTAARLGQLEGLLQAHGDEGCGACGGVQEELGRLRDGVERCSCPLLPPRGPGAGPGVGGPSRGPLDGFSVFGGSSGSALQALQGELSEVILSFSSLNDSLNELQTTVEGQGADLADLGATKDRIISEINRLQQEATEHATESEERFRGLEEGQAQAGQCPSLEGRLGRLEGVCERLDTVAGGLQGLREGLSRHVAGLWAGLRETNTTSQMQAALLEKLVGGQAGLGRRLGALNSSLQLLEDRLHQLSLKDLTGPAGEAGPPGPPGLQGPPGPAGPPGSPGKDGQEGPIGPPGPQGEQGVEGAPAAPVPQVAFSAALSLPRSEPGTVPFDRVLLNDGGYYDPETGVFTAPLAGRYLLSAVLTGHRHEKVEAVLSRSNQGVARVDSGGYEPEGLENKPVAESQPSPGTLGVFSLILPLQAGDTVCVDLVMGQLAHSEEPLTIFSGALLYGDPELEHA
As for E74D, the “effect of a mutation on the interaction” value is “disrupting interaction strength”.

In a further experiment the parent is B3. The note with it: with otub2_human OTUB2, Q96DC9.
Turning to P122R, the “effect of a mutation on the interaction” value is “disrupting interaction strength”.

A further experiment covers variants of B4. The note with it: with atl4_human ADAMTSL4, Q6UY14.
Turning to R166H, the “effect of a mutation on the interaction” value is given as “disrupting interaction strength”.

The values above are taken from IntAct's records for PubMed 31515488.
